Test [1] addresses SARS-CoV-2 spike (Wuhan, wild-type) (SARS-CoV-2) (UniProt P0DTC2). In words: MSD V-PLEX ACE2 kit, sVNT, positive control; competitor ACE2 (NHP study).
Test [2] has the same target. Put plainly: MSD V-PLEX ACE2 kit, sVNT, positive control; competitor ACE2 (mouse study).

As to “ACE2 Calibration Reagent (included in the MSD kit)”, the ACE2-binding percent inhibition in test [1] and in test [2] was 100% throughout.

The values are drawn from patent US20230219996A1.
